Reference: the supplement of paper PMC9170038

Test system: K4 kissing-loop RNA reporter
Test: apparent KD of K4 kissing-loop reporter; higher = weaker reporter binding
Details: Eterna round: R107
Method: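 RNA-MaP round R107: designed RNA switches with theophylline, tryptophan, arginine or FMN aptamers are transcribed on-chip within common flanks. They are titrated with a labelled K4 kissing-loop RNA reporter in RNA-MaP buffer (100 mM Tris pH 7.5, 80 mM KCl, 4 mM MgCl2), without ligand or with the indicated ligand. Median apparent KD per design.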

[1] = input ligand: theophylline 20 uM
[2] = input ligand: tryptophan 2.4 mM
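Also: bound reporter read as fluorescence of individual clusters on recovered sequencing chips by microscopy, with normalized cluster intensities fitted with a binding model.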

Sequence	apparent KD of K4 kissing-loop reporter (input ligand: FMN 200 uM) [nM]	apparent KD of K4 kissing-loop reporter (input ligand: arginine 13.2 mM) [nM]	apparent KD of K4 kissing-loop reporter (input ligand: none) [nM]	apparent KD of K4 kissing-loop reporter [1] [nM]	apparent KD of K4 kissing-loop reporter [2] [nM]
GGAUAGGACGGAGGAUAUGGUAGUGAUGUUACCAAACUGGUUAAACAUGUCAGAAAACUGGCAUGACCAGAAGGCCGUCCUAUCG [FmnBX 27 G10+C76]	108	62.6	69.6	61.6	67.4
UGUGCUGUGUAGUGUAAUGUUAUGCGGGAUACCAGAGUCUUUUUAUUCCCUUGGCAGCUUGAGUGAUGUUUGAUGCUGUUCUUGU [uujmullin]	303	305	350	371	287
UAGCAUUUGCUCGAGUGAUGUUCGAGCGAAGGAGCGCGAGAAAUCGCAGGUAGGUCGCGCUCGAACUAUGAGCGAUCAUUUAUUG [Arg A Ex t2d]	363	232	312	395	331
UGUCAUGGAAACAUGAACGUUGAAAUAAGACGAGGACCGGUACGGCCGCCACUCGAAUAAUGGUCAGUGAUGUUGACUGGAAUAA [KL-SSTryp-A form1 sub7 #dotplot2>1]	60.5	104	70.3	103	61.3
ACCUCACAGUGAUGUUGUGAGCCGAUAGUGAAGGAUAUUGUAAAGUCAAGAAGGUCAUGUCAGUCACAAAACGUUAAGCCUCGCA [theeternabot_exclusion_KL_FMN_A_19]	275	218	254	266	194
GAGAUAGAGGCGGCCGCCACUAGUGAUGUUAGUGAUGUUAGAUAGAGAAUAGAACAGAGAUAGGAUAGGACCGGGCCAGAUAGAG [Tryptophan B Exclusion; Euphoria Solution]	69.4	60.8	57.4	52.1	68.6
UCGGACCCUGGAGGAUAUGAGUCGAGUGAUGUUCGGCGGUCCAUGCCGAUGCGGCGUUAUGCCCUUUUAGAAGGCCAGGGUCCGA [#2 Exclusion - FMN B Attempt #10 (HarryS)]	498	216	277	268	264
AUAUAUAACUGAAGGAGCGAGGCCAAAUAUAUAUAGUGAUGUUAUAUAAAGGCACAUAGGCCUCAGGUAGGUCGCAGAAUAAUAU [AstrosExyArGB#1]	284	274	277	270	281
GGAUGGUAGGCGGCCGCCACUAAAACUGAACACAUACAAGCCAGUGAUGUUGGUAUGAUGAAGUAUAGGACCGGGCCUAGAUAGA [Exclusion - Tryptophan B (Freestyle 3)]	446	384	422	502	469
UGGAUAUCGUUUAGUCUGGUGAGCUCAGAUACCAGACUAGCGAUAGUCCCUUGGCAGCUGAUUAUGAUUGAGUGAUGUUCAAUCG [Theo A Ex t9b]	168	142	168	151	157
GGCCCGGGCUCGGCCGCCACUCCCUCGUACCGCAAGGUAUGAUACCGAGUGAUGUUCGGUUGGAGGAGGACCGGGAGCCCGGGCC [#2 Exclusion - Tryptophan B Attempt #6 (HarryS)]	116	118	106	101	102
AGGAUCGAAGAUCCAGCAGUCAAGCAAUACCGAGGACCGGUACGGCCGCCACUCGGAGUGAUGUUCCGAAGACUGCAAAAUAAAA [#SwitchBubble 8]	640	1050	955	592	86.2
GGACAACUAUGUCCCAUACAAACAAGAGAUACCAGCCAUCAUAGAGGCCCUUGGCAGCUCAUAUAAUCCAGUGAUGUUGGAUUUC [Atgebeus]	165	215	179	149	148
UGAUACCAGACUGAUACCAGCCACAGAGUCAAAGACUCUGAUAAAGGUACCAGUGAUGUUGGCCCUUGGCAGCAGUCUGGUAUCU [TheoBX 17 #SwitchBubble #StaticStem]	158	126	143	151	141
GCAGUGAUGUUGCUGAUGUGCAGUGGUAGUCGAGGACCGGUACGGCCGCCACUCGGUGAGAAUUUGUUAAUACAUCGAUAAGUGA [XVI]	968	558	788	509	707
AACUUAAUUUAUAAGCAGUGAUGUUGCUCACGAGGACCGGUACGGCCGCCACUCGAUCGGACUUAGGUCUUCAAUUAUUUCAUUA [JR_ExcTryptoA_Sub017]	149	192	163	199	145
GGUUCUCUGUUAGGAUAUAGAUUAGAGUGAUGUUCUAACGGCCCGGGCCCGAAAGGGCCCGGGCCGCUAGAAGGAACGGAGUUGG [#2 Same State - FMN A Attempt #1 (HarryS)]	399	149	1100	538	444
UGAUUGGCAAAAGUAGUGAUGUUACGAAUAUAGGAUAUUAGAGGAAUAAGAAGGAUAAGGGAGAAAUAGGUAAAUUGUUGGUUGG [whbob_SS_FMNA__2th171]	45.6	48.4	285	150	70.3
UGUCAUUGGUCGGCCGCCACUUUGUAUGGAGUGAUGUUUUGUAGAUUGUGUUGAAAGGUGUGGUGAAGGACCGGGACCGAUGACU [FiskerMod 24 - Jieux - Same State - Tryptophan B]	1070	652	922	841	749
UGUGAACAAAAGUAGAGUGGACCACUAUAGCGAGGACCGGUACGGCCGCCACUCGUGCAUGAAUUCAGUGAUGUUGAAAAGAGCU [whbob_EX_Tryp_A_t12]	258	375	330	364	185
UGAUUGCCAGUGAUGUUGGCAUAAACUGAAGGAGCGCGUGAAAACGCAGGUAGGUCGCAGUACCAUGCCAAUUGAUCGAAAGAUC [KL-XArg-A2]	143	150	155	169	141
